Measurements taken from patent JP2006306895A (dated 2006).

B1: ヒト型化#23-57-137-1抗体 L鎖バージョン"j" (antibody, V domains shown)
VH: QVQLVESGGGVVQPGRSLRLSCAASGFTFSSYGMSWVRQAPGKGLEWVATISSGGSYTYYPDSVKGRFTISRDNSKNTLYLQMNSLRAEDTAVYYCARQTTMTYFAYWGQGTLVTVSS
VL: QLVLTQSPSASASLGASVKLTCTLSSQHSTYTIEWYQQQPEKGPKYLMDLKQDGSHSTGDGIPDRFSGSSSGAERYLTISSLQSEDEADYYCGVGDTIKEQFVYVFGGGTKLTVLG
notes: Humanized H chain version a with human Cγ1; human lambda L chain C region; also called hMBC1HcDNA/pCOS1 + hMBC1Ljλ/pCOS1; version j
B2: ヒト型化H鎖バージョン"a"とキメラL鎖を組み合わせた抗体 (antibody, V domains shown)
VH: QVQLVESGGGVVQPGRSLRLSCAASGFTFSSYGMSWVRQAPGKGLEWVATISSGGSYTYYPDSVKGRFTISRDNSKNTLYLQMNSLRAEDTAVYYCARQTTMTYFAYWGQGTLVTVSS
VL: QLVLTQSSSASFSLGASAKLTCTLSSQHSTYTIEWYQQQPLKPPKYVMDLKQDGSHSTGDGIPDRFSGSSSGADRYLSISNIQPEDEAMYICGVGDTIKEQFVYVFGGGTKVTVLG
notes: Human Cγ1 H chain C region; also called humanized H chain version a + chimeric L chain
B3: ヒト型化#23-57-137-1抗体 L鎖バージョン"t" (antibody, V domains shown)
VH: QVQLVESGGGVVQPGRSLRLSCAASGFTFSSYGMSWVRQAPGKGLEWVATISSGGSYTYYPDSVKGRFTISRDNSKNTLYLQMNSLRAEDTAVYYCARQTTMTYFAYWGQGTLVTVSS
VL: QLVLTQSPSASASLGASVKLTCTLSSQHSTYTIEWYQQQPEKGPRYVMDLKQDGSHSTGDGIPDRFSGSSSGAERYLTISSLQSEDEADYICGVGDTIKEQFVYVFGGGTKLTVLG
notes: Humanized H chain version a with human Cγ1; human lambda L chain C region; also called hMBC1HcDNA/pCOS1 + hMBC1Ltλ/pCOS1; version t
B4: ヒト型化#23-57-137-1抗体 L鎖バージョン"q" (antibody, V domains shown)
VH: QVQLVESGGGVVQPGRSLRLSCAASGFTFSSYGMSWVRQAPGKGLEWVATISSGGSYTYYPDSVKGRFTISRDNSKNTLYLQMNSLRAEDTAVYYCARQTTMTYFAYWGQGTLVTVSS
VL: QLVLTQSPSASASLGASVKLTCTLSSQHSTYTIEWYQQQPEKGPKYLMDLKQDGSHSTGDGIPDRFSGSSSGAERYLTISSLQSEDEADYICGVGDTIKEQFVYVFGGGTKLTVLG
notes: Humanized H chain version a with human Cγ1; human lambda L chain C region; also called ヒト型化抗体バージョンq; hMBC1HcDNA/pCOS1 + hMBC1Lqλ/pCOS1
B5: ヒト型化#23-57-137-1抗体 L鎖バージョン"l" (antibody, V domains shown)
VH: QVQLVESGGGVVQPGRSLRLSCAASGFTFSSYGMSWVRQAPGKGLEWVATISSGGSYTYYPDSVKGRFTISRDNSKNTLYLQMNSLRAEDTAVYYCARQTTMTYFAYWGQGTLVTVSS
VL: QLVLTQSPSASASLGASVKLTCTLSSQHSTYTIEWYQQQPEKGPKYVMDLKQDGSHSTGDGIPDRFSGSSSGAERYLTISSLQSEDEADYYCGVGDTIKEQFVYVFGGGTKLTVLG
notes: Humanized H chain version a with human Cγ1; human lambda L chain C region; also called hMBC1HcDNA/pCOS1 + hMBC1Llλ/pCOS1; version l
B6: ヒト型化#23-57-137-1抗体 L鎖バージョン"m" (antibody, V domains shown)
VH: QVQLVESGGGVVQPGRSLRLSCAASGFTFSSYGMSWVRQAPGKGLEWVATISSGGSYTYYPDSVKGRFTISRDNSKNTLYLQMNSLRAEDTAVYYCARQTTMTYFAYWGQGTLVTVSS
VL: QLVLTQSPSASASLGASVKLTCTLSSQHSTYTIEWYQQQPEKGPRYLMDLKQDGSHSTGDGIPDRFSGSSSGAERYLTISSLQSEDEADYYCGVGDTIKEQFVYVFGGGTKLTVLG
notes: Humanized H chain version a with human Cγ1; human lambda L chain C region; also called hMBC1HcDNA/pCOS1 + hMBC1Lmλ/pCOS1; version m
B7: ヒト型化#23-57-137-1抗体 L鎖バージョン"o" (antibody, V domains shown)
VH: QVQLVESGGGVVQPGRSLRLSCAASGFTFSSYGMSWVRQAPGKGLEWVATISSGGSYTYYPDSVKGRFTISRDNSKNTLYLQMNSLRAEDTAVYYCARQTTMTYFAYWGQGTLVTVSS
VL: QLVLTQSPSASASLGASVKLTCTLSSQHSTYTIEWYQQQPEKGPRYVMDLKQDGSHSTGDGIPDRFSGSSSGAERYLTISSLQSEDEADYYCGVGDTIKEQFVYVFGGGTKLTVLG
notes: Humanized H chain version a with human Cγ1; human lambda L chain C region; also called hMBC1HcDNA/pCOS1 + hMBC1Loλ/pCOS1; version o

Molecular target: T1, ヒトPTHrP(1-34) (human)
T1 construct: Synthetic peptide, coated on ELISA plates (Peptide Institute) or mixed with antibody in the cAMP neutralisation assay; also called human parathyroid hormone related protein (1-34)
Test: ELISA, plate-coated human PTHrP(1-34)

Binding result, binds:
B1
B2
B3
B4
B5
B6
B7
